koff, Kd and EC50 data for 3 molecules are collected here from US20200291135A1 (INSPIRNA, published 2020).

Broadly, the koff is the rate constant with which the complex falls apart. A word on the EC50: it is the concentration at which the effect is half-maximal. High values mean lower potency in that assay, low ones higher potency in that assay.

Some results are limits rather than exact numbers.

For experiment [1], the target named is T1, rhMer/Fc Chimera (recombinant human MERTK extracellular domain conjugated to an IgG Fc domain) (human, UniProt Q12866 21-505).
T1 construct: extracellular domain; also called hMER recombinant protein; Mer-Fc conjugate; not shown: IgG Fc domain
T1 sequence (looked up): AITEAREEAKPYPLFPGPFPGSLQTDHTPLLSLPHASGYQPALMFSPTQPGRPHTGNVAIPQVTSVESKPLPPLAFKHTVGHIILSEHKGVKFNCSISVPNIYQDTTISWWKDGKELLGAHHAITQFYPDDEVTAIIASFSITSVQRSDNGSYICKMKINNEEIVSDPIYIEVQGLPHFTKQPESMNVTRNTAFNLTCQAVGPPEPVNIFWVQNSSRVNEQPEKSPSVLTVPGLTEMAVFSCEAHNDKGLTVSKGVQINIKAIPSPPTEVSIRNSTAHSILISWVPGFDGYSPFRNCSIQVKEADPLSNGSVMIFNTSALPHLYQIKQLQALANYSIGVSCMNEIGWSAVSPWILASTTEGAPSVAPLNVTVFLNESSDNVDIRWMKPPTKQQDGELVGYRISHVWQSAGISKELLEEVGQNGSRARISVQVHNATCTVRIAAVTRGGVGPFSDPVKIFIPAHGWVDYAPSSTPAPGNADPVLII
The experiment in a line: SPR, off-rate; ligand rhMer/Fc Chimera, antibody as analyte; below the detection limit of the instrument. (In general: In SPR one partner is held on a chip, and binding of the other changes the refractive index at the surface.)

Experiment [2] deals with T1, rhMer/Fc Chimera (recombinant human …). The experiment in a line: SPR, avidity format: rhMer/Fc Chimera immobilised on CM5 chip, antibody as analyte, 1:1 fit. On the procedure: With respect to avidity and affinity measurements using SPR, the protocols below were used.
The activator was prepared with a mixture of 400 mM EDC and 100 mM NHS immediately prior to injection. The CM5 sensor chip was activated for 420 s with the mixture. […] The chip was deactivated by 1 M ethanolamine-HCl. […] 8 concentrations (0.3125, 0.625, 1.25, 2.5, 5, 10, 20 and 40 nM) of the antibodies and running buffer were injected at a flow rate of 30 μL/min for an association phase of 240 s, followed by 4800 s dissociation. 10 mM glycine pH 1.5 as regeneration buffer was injected following every dissociation phase. The chip was regenerated with 10 mM glycine pH 1.5. One surface channel without capturing ligand was used as control surface for reference subtraction. Final data of each interaction was deducted from reference channel and buffer channel data. […] A molecular weight of 150 kDa was used to calculate the molar concentration of the antibodies.

For experiment [3], the target named is T2, human MERTK expressed on cells (SKMEL5 melanoma cells; in vitro differentiated M2 macrophages) (human, UniProt Q12866 21-999).
T2 construct: Endogenous MERTK of human cells; also called surface MERTK
T2 sequence: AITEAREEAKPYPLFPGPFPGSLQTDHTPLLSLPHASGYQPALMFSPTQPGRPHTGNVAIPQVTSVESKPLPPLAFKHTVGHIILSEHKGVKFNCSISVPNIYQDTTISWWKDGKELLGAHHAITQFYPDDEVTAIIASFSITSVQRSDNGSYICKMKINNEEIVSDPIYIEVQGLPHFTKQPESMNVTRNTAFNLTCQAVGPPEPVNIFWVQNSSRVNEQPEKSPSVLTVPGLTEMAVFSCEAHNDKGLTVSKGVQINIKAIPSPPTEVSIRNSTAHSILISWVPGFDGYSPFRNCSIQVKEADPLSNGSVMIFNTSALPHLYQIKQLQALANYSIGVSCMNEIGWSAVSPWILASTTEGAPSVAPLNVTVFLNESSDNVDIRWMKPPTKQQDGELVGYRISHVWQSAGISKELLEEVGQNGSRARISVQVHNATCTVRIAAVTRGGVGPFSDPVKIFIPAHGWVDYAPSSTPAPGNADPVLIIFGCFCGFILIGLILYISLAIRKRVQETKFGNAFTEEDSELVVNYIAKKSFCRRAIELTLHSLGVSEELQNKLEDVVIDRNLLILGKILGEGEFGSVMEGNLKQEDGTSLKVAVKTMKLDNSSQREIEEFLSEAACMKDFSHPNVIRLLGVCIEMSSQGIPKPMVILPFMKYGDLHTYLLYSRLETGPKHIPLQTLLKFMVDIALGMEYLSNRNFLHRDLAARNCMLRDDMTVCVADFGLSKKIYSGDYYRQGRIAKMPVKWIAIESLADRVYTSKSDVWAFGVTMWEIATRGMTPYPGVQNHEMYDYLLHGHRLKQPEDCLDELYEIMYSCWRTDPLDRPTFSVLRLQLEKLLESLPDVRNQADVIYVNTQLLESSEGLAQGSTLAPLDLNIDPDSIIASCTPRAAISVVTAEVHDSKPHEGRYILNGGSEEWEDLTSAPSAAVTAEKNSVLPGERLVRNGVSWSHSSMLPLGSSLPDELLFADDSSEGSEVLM
The experiment in a line: cell-based assay similar to that for z10 (flow cytometry on cells). (Flow cytometry measures light scatter and fluorescence of single cells or particles in a stream.)

The target of experiment [4] is T1, rhMer/Fc Chimera (recombinant human …). The experiment in a line: SPR, off-rate; ligand rhMer/Fc Chimera, antibody as analyte.

B1: z11 antibody (antibody, human IgG1, kappa, V domains shown)
VH: QVQLVQSGAEVKKPGASVKVSCKASGYTFTNYGMNWVRQAPGQGLEWMGWINTYTGEPTYADDFKGRVTMTLDTSTSTAYMELRSLRSDDMAVYYCARKSTVVSRYFDVWGQGTTVTVSS
VL: DIQMTQSPSFLSASVGDRVTITCKASQDVGDAVTWYQQKPGKAPKLLIYWASTRHTGVPDRFSGSGSGTDFTLTISSLQPEDFATYYCQQYRSYPLTFGQGTKLEIKR
Take B1: the off-rate (koff) in experiment [1] is below 1e-06 s⁻¹. In addition, the Kd in experiment [2] was found to be 0.00299 nM. Besides, the EC50 in experiment [3] worked out at 7.9 nM.

B2: z13 antibody (antibody, human IgG1, kappa, V domains shown)
VH: QVQLVQSGAEVKKPGASVKVSCKASGYTFTNYGMNWVRQAPGQGLEWMGWINTYTGEPTYADDFKGRVTFTLDTSTSTAYMELRSLRSDDMAVYYCARKSTVVSRYFDVWGQGTTVTVSS
VL: DIQMTQSPSFLSASVGDRVTITCKASQDVGDAVTWYQQKPGKAPKLLIYWASTRHTGVPDRFSGSGSGTDFTLTISSLQPEDFATYYCQQYRSYPLTFGQGTKLEIKR
On to B2, for which the koff in experiment [1] is below 1e-06 s⁻¹. Also, in experiment [2], the Kd is 0.00368 nM. In experiment [3], this molecule came in with a concentration for a half-maximal effect (EC50) of 7.6 nM.

B3: W3725-xAb-IgG1K/(S34+S35) (antibody, V domains shown)
VH: QIQLVQSGPELKKPGETVKISCKASGYTFTNYGMNWVKQAPGKGLKWMGWINTYTGEPTYADDFKGRFVFSLETSASTAYLQINNLKNEDMATYFCARKSTVVSRYFDVWGAGTTVTVSS
VL: DIVLTQSHKFMSTSVGDRVSITCKASQDVGDAVTWCQQKPGQPPKLLIYWASTRHTGVPDRFTGSGSGTDFTLTINNVQSEDLADYFCQQYRSYPLTFGAGTKLELKR
notes: also called chimeric anti-MERTK antibody
Turning to B3, in experiment [4], the koff worked out at 7e-06 s⁻¹.
